This is an account of results in PMC12148439 (2025).

By Kd is commonly meant the equilibrium constant for the complex coming apart. Low readings indicate higher affinity, high ones lower affinity.

Test [1] has as its target T1, CitAGacS649 (chimeric protein: GacS649 with its PDC domain replaced by the PDC domain of CitA from K (Pseudomonas aeruginosa | Klebsiella …, UniProt P52687 55-173, amine-reactive AlexaFluor 488 label (in the MST))). Briefly: MST; no citrate.
Test [2] deals with T1, CitAGacS649 (chimeric protein: GacS649 …). The test can be described thus: MST; 0.01 M citrate.

B1: RetSHK (histidine kinase region of the sensor histidine kinase RetS, residues 413-649) (domain or fragment)
chain: QTKAEFLAKISHEIRTPMNGVLGMTELLLGTPLSAKQRDYVQTIHSAGNELLTLINEILDISKLESGQIELDEVQFDLNALIEDCLDIFRVKAEQQRIELISFTQPQVPRVIGGDPTRLRQVVLSLLDNAFKQTEEGEILLVVALDDQGETPRLRIAVQDSGHPFDAKEREALLTAELHSGDFLSASKLGSHLGLIIARQLVRLMGGEFGIQSGSSQGTTLSLTLPLDPQQLENPTA
For B1, the Kd worked out at 11 µM in test [1] and 46 µM in test [2].
